Experimental data taken from patent US20210206849A1 (UNIVERSITY OF CONNECTICUT, published 2021).
Each block holds one binder with its values, some of them ahead of it.

Experiments:
[1] = target: T1, mouse PD-1 on transfected HEK-293 cells (mouse, UniProt Q02242 25-288); assay: flow cytometry, biotinylated mBTN5-Ig and streptavidin-PE on transfected HEK-293 cells
T1 construct: whole, on cells
T1 sequence (looked up): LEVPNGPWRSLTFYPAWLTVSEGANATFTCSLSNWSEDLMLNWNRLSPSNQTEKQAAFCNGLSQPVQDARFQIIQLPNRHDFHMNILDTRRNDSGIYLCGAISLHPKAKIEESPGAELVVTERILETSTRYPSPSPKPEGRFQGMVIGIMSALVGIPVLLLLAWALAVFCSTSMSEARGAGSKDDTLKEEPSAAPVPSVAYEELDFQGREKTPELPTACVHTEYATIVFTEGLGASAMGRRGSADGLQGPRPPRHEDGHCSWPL
Method: (§1) FIG. 20. The expression pattern of the mBTN5 putative receptor. (A) Splenocytes from C57BL/6 mice were freshly harvested and analyzed for resting immune cells. For T cell activation, splenocytes were incubated with anti-CD3 (1 μg/ml) and anti-CD28 (0.5 μg/ml) antibodies for 3 days. For the activation of B cells, DCs and monocytes, splenocytes were incubated with LPS (10 μg/ml) for 3 days. The resting and active immune cells were stained with anti-CD4, CD8, B220, CD11c, or CD11b antibodies, and biotinylated mBTN5-Ig or control Ig, followed by streptavidin-PE. Representative flow cytometric profiles showing the binding of mBTN5-Ig or control Ig to resting and activated immune cells. (B, C) HEK-293 cells were transfected with an expression vector containing murine PD-1, CD28, BTLA, CTLA-4, or ICOS gene. The transfected cells were stained with (B) antibodies against the respective PD-1, CD28, BTLA, CTLA-4, or ICOS protein, (C) biotinylated mBTN5-Ig or control Ig, followed by streptavidin-PE. Representative flow cytometric profiles showing the binding of (B) the antibodies or (C) mBTN5-Ig to the transfected cells. Representative of 3 independent experiments.

[2] = target: T2, mouse ICOS on transfected HEK-293 cells (mouse, UniProt Q9WVS0 21-200); assay: as above
T2 construct: whole, on cells
T2 sequence (looked up): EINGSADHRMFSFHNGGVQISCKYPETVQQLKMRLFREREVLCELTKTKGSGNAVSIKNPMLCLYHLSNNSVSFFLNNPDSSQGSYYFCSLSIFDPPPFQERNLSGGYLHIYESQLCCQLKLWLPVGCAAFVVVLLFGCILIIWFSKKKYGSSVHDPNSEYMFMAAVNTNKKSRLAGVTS
Method: as §1

[3] = target: T3, mouse CTLA-4 on transfected HEK-293 cells (mouse, UniProt P09793 36-223); assay: as above
T3 construct: whole, on cells
Method: as §1

[4] = target: T4, mouse BTLA on transfected HEK-293 cells (mouse, UniProt Q7TSA3 30-306); assay: as above
T4 construct: whole, on cells
T4 sequence (looked up): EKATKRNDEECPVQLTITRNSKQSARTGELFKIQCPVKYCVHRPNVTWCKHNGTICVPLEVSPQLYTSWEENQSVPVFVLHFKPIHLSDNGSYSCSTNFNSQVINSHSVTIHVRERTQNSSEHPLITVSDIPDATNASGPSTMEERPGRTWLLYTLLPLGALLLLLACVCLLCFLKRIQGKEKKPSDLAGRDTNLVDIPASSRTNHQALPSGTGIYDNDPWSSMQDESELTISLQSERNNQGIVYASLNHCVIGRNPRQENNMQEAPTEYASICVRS
Method: as §1

[5] = target: T5, mouse CD28 on transfected HEK-293 cells (mouse, UniProt P31041 20-218); assay: as above
T5 construct: whole, on cells
T5 sequence (looked up): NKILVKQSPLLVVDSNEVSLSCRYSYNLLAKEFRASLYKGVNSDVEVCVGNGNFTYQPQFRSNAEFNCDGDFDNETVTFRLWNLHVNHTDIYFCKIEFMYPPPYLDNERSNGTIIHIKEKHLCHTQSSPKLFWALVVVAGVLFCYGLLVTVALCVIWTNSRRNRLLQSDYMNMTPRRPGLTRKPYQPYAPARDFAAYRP
Method: as §1

[6] = target: T6, Control Ig (recombinant mouse IgG2a Fc protein) (mouse, UniProt P01863 98-330 = IgG part, limits assumed); assay: ELISA screen of hybridomas
T6 construct: domain: Fc; Bought control protein; also called control mouse IgG2a Fc; control Ig protein

[7] = target: T1, mouse PD-1 on transfected HEK-293 cells; assay: flow cytometry, biotinylated mCD300c2-Ig on transfected HEK-293 cells
Method: (§2) To determine whether mCD300c binds to molecules previously identified as receptors of the known B7 family members, HEK-293 cells were transfected with an expression vector containing the mouse CD28. CTLA4, PD-1, BTLA or ICOS gene. The expression of these receptors on the transfected 293 cells was confirmed by flow cytometric analysis with the antibodies against the respective receptors (FIG. 5C). The binding of mCD300c to the transfected HEK-293 cells was then analyzed.

[8] = target: T2, mouse ICOS on transfected HEK-293 cells; assay: as above
Method: as §2

[9] = target: T3, mouse CTLA-4 on transfected HEK-293 …; assay: as above
Method: as §2

[10] = target: T4, mouse BTLA on transfected HEK-293 cells; assay: as above
Method: as §2

[11] = target: T5, mouse CD28 on transfected HEK-293 cells; assay: as above
Method: as §2

[12] = target: T1, mouse PD-1 on transfected HEK-293 cells; assay: flow cytometry, biotinylated Skint8-Ig and streptavidin-PE on transfected HEK-293 cells
Method: (§3) FIG. 15. The expression pattern of the Skint8 putative receptor. (A, B) Spleen cells were harvested from C57BL/6 mice. To obtain activated T cells, the spleen cells were incubated with anti-CD3 (1 μg/ml) and anti-CD28 (0.5 μg/ml) antibodies for 3 days. To obtain activated B cells, monocytes and DCs, the spleen cells were incubated with LPS (10 μg/ml) for 3 days. The freshly harvested and activated immune cells were stained with biotinylated Skint8-Ig or control Ig, followed by streptavidin-PE, as well as anti-CD4, CD8, B220, CD11b, or CD11c antibodies to identify the immune cells. (A) Representative flow cytometric profiles and (B) Statistical analysis showing the binding of Skint8-Ig or control Ig to freshly harvested and activated immune cells. (B) Data are presented as relative fluorescence intensity (RFI) for cell binding of Skint8-Ig versus control Ig. (C) HEK-293 cells were transfected with an expression vector containing the murine PD-, CD28, BTLA, CTLA-4, or ICOS gene and screened for cells stably expressing each gene. The transfected cells were stained with antibody against the respective PD-1, CD28, BTLA, CTLA-4, or ICOS protein (open histograms) or isotype antibody (shaded histograms). Representative flow cytometric profiles showing the expression of each receptor. (D) PD-, CD28, BTLA, CTLA-4, or ICOS gene-transfected HEK-293 cells were stained with biotinylated Skint8-Ig or control Ig, followed by streptavidin-PE. Representative flow cytometric profiles showing the binding of Skint8-Ig (open histograms) or control Ig protein (shaded histograms) to the transfected cells. The data are representative of 3 independent experiments.
(§4) Single cell suspensions of organs were stained with the fluorochrome-conjugated antibodies protein as described (38-41). Direct or indirect staining of fluorochrome-conjugated antibodies included: CD4, CD8, B220, CD11c, CD11b, F4/80, CD69, CD44, CD62L, IFNγ, TNFα, IL-2, IL-10, CD28, CTLA-4, PD-1, BTLA, and ICOS (BioLegend, or BD Biosciences, San Jose, Calif., San Diego, Calif.). Skint8-g, Skint8 IgV-Ig or Skint8 IgC-Ig proteins were biotinylated with sulfo-NHS-LC-Biotin (Pierce) and detected by streptavidin-PE. The samples were analyzed on a FACSCalibur or LSRFortessa X-20 Cell Analyzer (BD Biosciences). Data analysis was done using FlowJo software (Ashland, Oreg.).

[13] = target: T2, mouse ICOS on transfected HEK-293 cells; assay: as above
Method: as §3, §4

[14] = target: T3, mouse CTLA-4 on transfected HEK-293 …; assay: as above
Method: as §3, §4

[15] = target: T4, mouse BTLA on transfected HEK-293 cells; assay: as above
Method: as §3, §4

[16] = target: T5, mouse CD28 on transfected HEK-293 cells; assay: as above
Method: as §3, §4

[17] = target: T7, Human CD300c-Ig fusion protein (human); assay: ELISA screen of hybridomas
T7 construct: also called hCD300c-Ig; hCD300-Ig
T7 chain: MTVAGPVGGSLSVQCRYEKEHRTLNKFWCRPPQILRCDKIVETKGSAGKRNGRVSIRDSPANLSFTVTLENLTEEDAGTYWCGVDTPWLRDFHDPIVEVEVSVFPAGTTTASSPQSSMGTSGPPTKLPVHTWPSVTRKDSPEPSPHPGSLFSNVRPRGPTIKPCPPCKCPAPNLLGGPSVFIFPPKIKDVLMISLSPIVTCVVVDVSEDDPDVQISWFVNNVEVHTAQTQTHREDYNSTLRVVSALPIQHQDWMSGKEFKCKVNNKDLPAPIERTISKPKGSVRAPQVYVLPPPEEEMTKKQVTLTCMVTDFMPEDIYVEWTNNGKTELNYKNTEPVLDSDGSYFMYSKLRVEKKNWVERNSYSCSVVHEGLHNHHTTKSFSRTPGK

- binding result [1]: no binding
- binding result [2]: no binding
- binding result [3]: no binding
- binding result [4]: no binding
- binding result [5]: no binding
B1: mBTN5-Ig fusion protein (Fc fusion)
chain: QPPVQVLGDAGKVYIAPLRDTANLPCPLFLWPNMVLSEMRWYRPGHLPRTQAVHVFRDGQDRDEDLMPEYKGRTALVRDAHKESYILQISNVRLEDRGLYQCQVWVGNS
modifications: biotinylated with sulfo-NHS-LC-Biotin (sites not given)
notes: Made in HEK-293 cells; not shown: constant region of mouse IgG2a from the pCMV6-AC-FC-S expression vector (ORIGENE)

- binding result [6]: no binding
B2: anti-hTAPBPL mAb (clone 54) (antibody, V domains shown)
VH: DVQLQESGPGLVKPSQTLSLTCSVTGYSLTSGYFWHWIRQFPGNKLEWMGYISYSGTTNYNPSLKNRISITHDSSKNQFFLNLNSVTAEDTATYFCAGDDWDWFAYWGQGTLVTVSA
VL: ENVLTQSPAIMSASPGEKVTMTCSASSSVNYMHWYQQKSSTSPKLWIYDTSKLASGVPGRFSGSGSGNSYSLTISSMEAEDVATYYCFQGSGYPLTFGSGTKLEIK
notes: Mouse hybridoma mAb; also called anti-TAPBPL mAb

- binding result [7]: no binding
- binding result [8]: no binding
- binding result [9]: no binding
- binding result [10]: no binding
- binding result [11]: no binding
B3: mCD300c2-Ig fusion protein (Fc fusion)
chain: CVPLHGPSTITGTVGKSLSVSCQYEEKFKTKDKFWCRGSLKVLCKDIVKTSSSEEVRNGRVTIRDHPDNLTFTVTYESLTLEDADTYMCAVDISLFDGSLGFDKYFKIELSVVPSEDPVTGSSLESGRDILESPTSSVGHTHPSVTTDDTIPTPCPQPRSLRSSLYFRVLVS
modifications: biotinylated with sulfo-NHS-LC-Biotin for flow cytometry (sites not given)
notes: Made in HEK293F cells; also called mCD300c-Ig; not shown: constant region of mouse IgG2a from the pCMV6-AC-FC-S expression vector (ORIGENE)

- binding result [12]: no binding
- binding result [13]: no binding
- binding result [14]: no binding
- binding result [15]: no binding
- binding result [16]: no binding
B4: Mouse Skint8-Ig fusion protein (Fc fusion)
chain: EKLRVTTPTRHLLARVGGQAELSCQVIPPHSVMHMEVRWFRSGHSQPVYLYRGGHKMSEEAAPEYANRTEFVKEAIGEGKVSLRIYNINILDDGPYQCSFNDSGFIDVAIMNLNVTAVGLETEIHVQAPDADGVMVECNTGGWFPRPQMEWRDSKGATLPHSLKSYSQDEARFFHMKMTLLLTNMSHGSIICCISNPVTGEEKQTSIIPRGPTIKPCPPCKCPAPNLLGGPSVFIFPPKIKDVLMISLSPIVTCVVVDVSEDDPDVQISWFVNNVEVHTAQTQTHREDYNSTLRVVSALPIQHQDWMSGKEFKCKVNNKDLPAPIERTISKPKGSVRAPQVYVLPPPEEEMTKKQVTLTCMVTDFMPEDIYVEWTNNGKTELNYKNTEPVLDSDGSYFMYSKLRVEKKNWVERNSYSCSVVHEGLHNHHTTKSFSRTPGK
modifications: biotinylated with sulfo-NHS-LC-Biotin in the flow cytometry assays (sites not given)
notes: Made in HEK-293 cells; also called Skint8-IgG Fc

- binding result [6]: no binding
- binding result [17]: binds
B5: anti-hCD300c mAb (clone B47-1D2) (antibody, V domains shown)
VH: QIQLVQSGPELRKPGETVKISCKASGYTFTIYGMNWMKQAPGKGLKWMGWINTYTGEPTYADDFKGRFAFSLETSASTAFLQINNLTNEDTATYFCARSRFAYWGQGTLVTVSA
VL: DIVMTQSQKFMSTSVGDRVSVTCKASQNVGTNVAWYQQKPGQSPKALIYSASYRYSGVPDRFTGSRSGTDFTLTISNVQSEDLAEYVCQQYNSYPLTFGAGTKLELK
notes: Mouse hybridoma mAb; also called anti-CD300c mAb
